Measured values as given in the supplement of paper PMC9170038.

Test system: MS2 coat protein
Experiment: apparent KD of MS2 coat protein; designed switch direction (-1 OFF switch, 1 ON switch): -1; higher = weaker reporter binding
Outline: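 Each step of the titration lasted 0.8–1.5 h at the lowest concentration and 10–20 min at the highest. The protein, SNAP-549-labelled MS2 coat protein, went from 0.7 or 1.5 nM doubling to 3 µM over RNA switches transcribed on Illumina chips by stalled E. coli RNA polymerase. Normalised cluster fluorescence was curve-fitted, and the per-design median over clusters is given as apparent KD.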

[1] = input ligand: microRNA oligo, concentration not stated
[2] = Eterna round: R95, input ligand: FMN 200 uM
[3] = Eterna round: R95, input ligand: microRNA oligo, concentration not stated
[4] = Eterna round: R95, input ligand: none

Sequence	apparent KD of MS2 coat protein [1] [µM]	apparent KD of MS2 coat protein (input ligand: FMN 200 uM) [µM]	apparent KD of MS2 coat protein (input ligand: none) [µM]	apparent KD of MS2 coat protein [2] [µM]	apparent KD of MS2 coat protein [3] [µM]	apparent KD of MS2 coat protein [4] [µM]
AAGUACCGGUGAGGAUAUUUUUAAUAGAACUUUAUGAUAUACAUGAGGAUCACCCAUGUUACUUUAAAGAAGGCAUCGGAUUAA [Mat - Exclusion NG 2 - Mod of JL - D86] (Eterna round: R96, puzzle: Exclusion NG 2)	0.0125	–	–	–	–	–
AAGUACCGGUGAGGAUAUUUUUAAUAGAGCUUUAUGAUAUACAUGAGGAUCACCCAUGUUACGUUAAAGAAGGCAUCGGAUUAA [Mat - Exclusion NG 2 - Mod of JL - D97] (Eterna round: R96, puzzle: Exclusion NG 2)	0.0137	0.0161	0.0193	–	–	–
AAGUACCGUCACGAUAGUGAUGGUACAACAAGCAUGUAAACAUGAGGAUCACCCAUGUCCUCAAAUGCUCGUCUUAU [Sensor 3 - 65] (puzzle: Sensor v3, turn-off variant 2)	–	–	–	0.556	1.09	0.689
AAGUACCGUCACGAUAGUGAUGGUACAACAAGCAUGUAAACAUGAGGAUCACCCAUGUCCUCAUAUGCUCGUCUUAU [Sensor 3 - 64] (puzzle: Sensor v3, turn-off variant 2)	–	–	–	0.375	0.0343	0.566
AAGUACCGUCACGAUAGUGAUGGUACAACAAGCAUGUAAACAUGAGGAUCACCCAUGUCCUCGAAUGCUCGUCUUAU [Sensor 3 - 66] (puzzle: Sensor v3, turn-off variant 2)	–	–	–	0.554	0.772	0.519
AAGUACCGUCACGAUAGUGAUGGUACAACAAGCGAAUGUACAUGAGGAUCACCCAUGUCCUCUUUUGCUCGUCUUAU [Sensor 3 - 97] (puzzle: Sensor v3, turn-off variant 2)	–	–	–	0.13	0.0319	0.155
AAGUACCGUCACGAUAGUGAUGGUACAACAAGUAGUGAAACAUGAGGAUCACCCAUGUCCUCAAUUGCUCGUCUUAU [Sensor 3 - 81] (puzzle: Sensor v3, turn-off variant 2)	–	–	–	0.776	0.264	1.02
AAGUACCGUCACGAUAGUGAUGGUACAACAAGUAGUGAAACAUGAGGAUCACCCAUGUCCUCAGUUGCUCGUCUUAU [Sensor 3 - 86] (puzzle: Sensor v3, turn-off variant 2)	–	–	–	0.283	0.269	0.298
AAGUACCGUCACGAUAGUGAUGGUACAACAAGUAGUGAAACAUGAGGAUCACCCAUGUCCUCAUUUGCUCGUCUUAU [Sensor 3 - 87] (puzzle: Sensor v3, turn-off variant 2)	–	–	–	1.03	0.365	0.806
AAGUACCGUCACGAUAGUGAUGGUACAACAGGUAAAUGUACAUGAGGAUCACCCAUGUCCUCUUUUGCUCGUCUUAU [Sensor 3 - 93] (puzzle: Sensor v3, turn-off variant 2)	–	–	–	0.147	0.0362	0.16
AAGUACCGUCACGAUAGUGAUGGUACAGCAAGCAGUGAAACAUGAGGAUCACCCAUGUCCUCAAUUGCUCGUCUUAU [Sensor 3 - 78] (puzzle: Sensor v3, turn-off variant 2)	–	–	–	0.0433	0.211	0.0445
AAGUACCGUCACGAUAGUGAUGGUACAGCAAGUAGUGAAACAUGAGGAUCACCCAUGUCCUCAAUUGCUCGUCUUAU [Sensor 3 - 82] (puzzle: Sensor v3, turn-off variant 2)	–	–	–	0.11	0.171	0.115
AAGUACUACAAGCUUAGGGACAUGAGGAUCACCCAUGUUCGUCUUAUUGAUCUAGGUACGCUGACGUACCUAGAUCA [Mat - Sensor v3 - turn-off var 1 - JL Mod - D10] (puzzle: Sensor v3, turn-off variant 1)	–	–	–	0.0162	0.0445	0.0155
AAGUAGUGUGUGAGGAUAUUGGUGGAAUGACAUAUUAAGAAGGCACAUGAGGAUCACCCAUGUGGGUUGACACG [Brourd's EX4 #19] (Eterna round: R97, puzzle: Brourd's mod of Exclusion 4)	–	0.269	0.0984	–	–	–
AAGUAUAGAGGAUAUAGUAGUUACAACAUGAGGAUCACCCAUGUUCUUCAUAACGUAGUUCUAGAAGGCUGAUAAA [EX-5 Malc#28] (puzzle: Exclusion 5)	–	–	–	–	0.172	–
AAGUCCAGAGGAUAUCAGACGCGGCACAUGAGGAUCACCCAUGUAUUCCCGUCUGCCGACUGAGAAGGUUGGAAAG [Vesoarusqu] (puzzle: Exclusion 5)	–	–	–	–	0.0111	–
AAGUCGACGGUGAGGAUAUAGGUUGAACGACAGAUCUAGAAGGUACAUGAGGAUCACCCAUGUGGGUAACGUCG [Brourd's EX4 #36] (Eterna round: R97, puzzle: Brourd's mod of Exclusion 4)	–	0.0548	0.0982	–	–	–
AAGUCGACGGUGAGGAUAUUGGUUGAACGACAGAUUAAGAAGGUACAUGAGGAUCACCCAUGUGGGUAACGUUG [Brourd's EX4 #76] (Eterna round: R97, puzzle: Brourd's mod of Exclusion 4)	–	0.108	0.0862	–	–	–

Sequence	apparent KD of MS2 coat protein [1] [µM]	apparent KD of MS2 coat protein (input ligand: FMN 200 uM) [µM]	apparent KD of MS2 coat protein (input ligand: none) [µM]	apparent KD of MS2 coat protein [2] [µM]	apparent KD of MS2 coat protein [3] [µM]	apparent KD of MS2 coat protein [4] [µM]
AAGUCGAGCGUGAGGAUAUCGUCCGGACGACCCAACGAGAAGGCACAUGAGGAUCACCCAUGUGAUUCAGCUCA [Brourd's EX4 #50] (Eterna round: R97, puzzle: Brourd's mod of Exclusion 4)	–	0.0203	0.0187	–	–	–
AAGUCGGCAGGAUAUACAUGAGGAUCACCCAUGUAAAUUUUUCGUUUAACUUGAAUGUGUAGAAGGGCCAUGAA [Ex3 #67] (Eterna round: R97, puzzle: Exclusion 3)	–	0.0258	0.0272	–	–	–
AAGUUCAGAGGAUAUGCCCAGCUCGACAUGAGGAUCACCCAUGUAUCCACAGAACGUACGGCAGAAGGCUGCAAUA [Eternabot (Original) Solution 9] (Eterna round: R97, puzzle: Exclusion 5)	–	0.0694	0.086	–	–	–
AAGUUGAAAGUCAGGAUAUCCAGACAAAAGUCAACGGAGAAGGGACUUGAGGAUCACCCAAGUGACCCUAAAUG [Usraleribe] (Eterna round: R97, puzzle: Brourd's mod of Exclusion 4)	–	0.0239	0.0148	–	–	–
AAUAACAAGUAAGAUCCUAACAUGAGGAUCACCCAUGUGCUCGUCUUGUAAAGUACUAUCACGAAAGUGAUAGUACA [Sensor 3, v1 - 51] (puzzle: Sensor v3, turn-off variant 1)	–	–	–	0.0483	0.295	0.0547
AAUAACAAGUAAGGUCCUAACAUGAGGAUCACCCAUGUGCUCGUCUUAUAAAGUACUAUCACGAAAGUGAUAGUACA [Sensor 3, v1 - 52] (puzzle: Sensor v3, turn-off variant 1)	–	–	–	0.0525	0.414	0.0521
AAUAACAAGUAGAUCCUAAACAUGAGGAUCACCCAUGUGCUCGUCUUGUAAAGUACUAUCACGAAAGUGAUAGUACA (Eterna round: R97, puzzle: Sensor, turn-off variant 1)	–	0.0845	0.0852	–	–	–
AAUAACAAGUAGAUCCUAAACAUGAGGAUCACCCAUGUGCUCGUCUUGUAAAGUACUAUCACGAAAGUGAUAGUACA [Sensor 3, v1 - 58] (puzzle: Sensor v3, turn-off variant 1)	–	–	–	0.067	0.36	0.115
AAUAACAAUGUGAGGAUAUCUAGAGCUUCGGCUCUAGAGAAGGCACAUGAGGAUCACCCAUGUCUCAAUAACAA [BmEx4/2-E6] (Eterna round: R97, puzzle: Brourd's mod of Exclusion 4)	–	0.339	0.0546	–	–	–
AAUAACAGAGGAUAUACUAAAAUAUGAAUAAAAUAAAUAAAACAUGAGGAUCACCCAUGUAGAAGGCUGAAUAA [JMF's Not so obvious solution 7] (puzzle: Exclusion 2)	–	–	–	0.026	0.0293	0.025
AAUAACAGAGGAUAUACUAUUUUAUGUAUUUAUUAUUUUGAACAUGAGGAUCACCCAUGUAGAAGGCUGAAUGA [JMF 62] (puzzle: Exclusion 2)	–	–	–	–	0.0244	–
AAUAACAGAGGAUAUACUAUUUUAUGUAUUUAUUAUUUUGAACAUGAGGAUCACCCAUGUAGAAGGCUGAUUAA [JMF 47] (puzzle: Exclusion 2)	–	–	–	–	0.0287	–
AAUAACAGAGGAUAUACUAUUUUAUGUGUUUAUUGUUUUGAACAUGAGGAUCACCCAUGUAGAAGGCUGAAUGA [JMF 67] (puzzle: Exclusion 2)	–	–	–	–	0.0258	–
AAUAACAGAGGAUAUACUAUUUUAUGUGUUUGUUAUUUUAAACAUGAGGAUCACCCAUGUAGAAGGCUGAUUGA [JMF 72] (puzzle: Exclusion 2)	–	–	–	–	0.041	–
AAUAACAGAGGAUAUACUGUUUUAUGUGUUUAUUAUUUUAAACAUGAGGAUCACCCAUGUAGAAGGCUGAAUAA [JMF 13] (puzzle: Exclusion 2)	–	–	–	–	0.037	–
AAUAACAGAGGAUAUACUGUUUUAUGUGUUUAUUGUUUUGAACAUGAGGAUCACCCAUGUAGAAGGCUGAAUGA [JMF 66] (puzzle: Exclusion 2)	–	–	–	–	0.023	–
AAUAACAGAGGAUAUACUGUUUUAUGUGUUUGUUAUUUUAAACAUGAGGAUCACCCAUGUAGAAGGCUGAAUAA [JMF 15] (puzzle: Exclusion 2)	–	–	–	–	0.0198	–
